Results taken from the nanobody polyreactivity screen of Harvey et al. (2022).

Assay: yeast display, Sf9 membrane polyspecificity reagent, FACS + sequencing; frameworks hold sequencing errors
Outline: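 Using colony PCR, genes from sorted yeast display clones were amplified, then sequenced on MiSeq at 2 × 250 and filtered by CDR length. The clones had been stained with 10% biotinylated, detergent-solubilized Sf9 membrane reagent for 1 hour at 4 °C and sorted by FACS into low and high (top ~1%) gates on anti-HA and streptavidin fluorescence. Polyreactivity labels come from the gate of origin.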

Sequence | polyreactivity (PSR sort gate)
QVQLVESGGGLVQAGGSLRLSCAASGSTFRTYAMGWYRQAPGKERELVAAISFNGTRTYYADSVKGRFTISRDNAKNTVYLQMNSLKPEDTAVYYCAARGRGSFHQKGYYYWGQGTQVTVSS | high polyreactivity
QVQLVESVGGLVQAGGSLRLSCAASGIIFARYAMGWYRQAPGKERELVASISWSTGNTYYADSVKGRFTISRDNAKNTVYLQMNSLKPEDTAVYYCAATYRRKYWTMDYWGQGTQVTVSS | high polyreactivity
QVQLVESGGGLVQAGGSLRLSCAASGFTFVNYVMGWYRQAPGKERELVAAISRSGGSTYYADSVKGRFTISRDNAKNTVYLQMNSLKPEDTAVYYCAARWFYRAGFNYWGQGTQVTVSS | high polyreactivity
QVQLVESGGGLVKAGGSLRLSCAASGRIFKYYAMGWYRQAPGKERELVAAISSVGSTNYADSVKGRFTISRDNAKNTVYLQMNSLKPEDTGVYYCAAPYQHYDVNYDSWGQGTQVTVSS | low polyreactivity
QVQLVESAGGLVQAGGSLRISCAASGRTFFKYAMGWYSQAPGKERELVAAITGRGGSTYADSVKGRFTISRDNAKNTVYLQINSLKPEDTSVFYCAKVYQRGAQYYYYKYDYWGQGTQVTVSS | high polyreactivity
QVQLVESGGGLVQAGGSLRLSCAASGIIFSGNAMGWYRQAPGKERELVAAITRGGRTYYADSVKGRFTISRDNAKNTVFFQFNSLKPEDTAVYYCGAGYPYSYREYYYWGQGSQVTVSS | high polyreactivity
QVQIVESGGGLVQAGGSLRLSCAASGSTFPYNAMVWYRKEPGKERELVAVITTVGSTYYADSVKGRFTISRDNAKNTVYLQMNSLKPEDTAVYYCAAANTQSPGYDYWGQGTQVTVSS | low polyreactivity
QVQLVESVGGLVQAGGSLRLSCAASGSIEAYAMGWYRQAPGKERELVASITWRGGSTYYADSVKGRFTISRDNAKNTVYLQMNSLKPEDTAVYYCAAGFQTRTPLNQFDYWGQGTQVTVSS | low polyreactivity
QVQLVESGGGLVQAGGSLRLSCAASGSIFVYNAMGWYRQAPGKERELVASITWSGGRTYYADSVKGRFTISRDNAKNTVYLQMNSLKPEDTAVYYCNVRQGGPTVTWEYDYWGQGTQVTVSS | high polyreactivity
QVQLVESGGGLVQAGGSLRLSCAASGSSLDSYTMGWSRQAPGKERELVAAITSDGGSTYYADSVKGRFTISRDNAKNTVYLQMNSLKPEDTAVDYCAKLSRYYGFWYTPDFDYWGQGTQVTVSS | high polyreactivity
QVQLVESGGGLDQAGGSLRLSSAASGSIFSGYAMGWYRQAPGKERELVAAISSSGTRTYYADSVKGRFTISRDNAKNTVYLQMNSLKPEETAVYYCNAATSKVQFSGYGYWGQGTQVTVSS | high polyreactivity
QVQLVESGGGLVQAGGSLRLSCAASGSTSVQYAMGWYRQAPGKERELVAAIDRSGGSTSYADSVKGRFTISRDNAKHTVYLQMNSLKPEDTAVYYCNADVHNRGWPYDYWGQGTQVTVSS | low polyreactivity
QVQLVESGGGLVQAGGSLRLSCAASGFTFPYNDMGWYIQARGKEREFVAAISRSGTRTYYADSVKGRFTISRDNAKHTVYLQMNSLKPEDTAVYYCNARAAGYARLGPGFDYWGQGTQVTVSS | high polyreactivity
QVQLVESGGGLVQAGGSLRLSCAASGITIRRYAMGWYRQAPGKERELVAAITTGGGGTYYADSVKGRFTISRDNAKNTVYLQMNSLKPEDTAVYYCAATYWRTYPSYYWGQGTQVTVSS | high polyreactivity
QVQLVESGGGVVQAGGSLRLSCAASGRTFQFNAMGWYRQAPGKERELVATIDDPSGGTYYADSVKGRFTISRDNAKNTVYLQMNSLKPEDTAVYYCAADRWDSRYETYRYDYWGQGTQVTVSS | low polyreactivity
QVQLVESGGGVVQAGGSLRLSCAASGRIFIYYTMGWYRQAPGKEREFVAAITYSGGSTRYADSVKGRFTISRDNAKNTVYLQMNSLKPEDTAFYYCAAKFSVRRGFDYWGQGTQVTVSS | low polyreactivity
QVQLGESGGGLVQAGGSLRLSCAASGSTFYYYAMGWYRQAPGKERELVASINYSAGRTYYADSVKGRFTISRDNAKNTVYLQMNSLKPEDTAVYYCAAETPSGYYPQQYDYYWGQGTQVTVSS | high polyreactivity
QVQLVESGGGLVQAGGSLRLSCAASGSTFAANAMGWDRQAPGKERELVAAITSGGGSTYYADSVKGRFTISRDNAKNTVYLQMNSLKPEDTAVYYCAALQSHGVDYDYWGQGSQVTVSS | low polyreactivity
QVQLVESWGGLVQAGGSLRLSCAASGSIFRRYAMGWYRQAPGKERELVAAISIGGRTYYADSVKGRFTISRDNAKNTVYFQMNSLKPEDTAVYYCAARESRSWGGGSWGQGTQVTVSS | high polyreactivity
QFQLVESGGGLVQAGGSLRLSCADSGSIFLLYVMGWYRQAPGKERELVAAISSGGSTNYADSVKGRFTISRDNAKNTVYLQMNSLKPEDTAVYYCNAVAVPQGVKLYDYWGQGTQVTVSS | low polyreactivity
QVQLVESGGGLVQAGGSLRLSCAASGLTFYYYAMGWYRQAPGKERELVAAISATGGRTYYADSVKGRFTISRDNAKNTVYLQMNSLKPEDTAVYYCAADTPYLRRRLGMDYWGQGTQVTVSS | high polyreactivity

Sequence | polyreactivity (PSR sort gate)
QVQLVESGGGLVQAGGSLRLSCAASGRIFRGYTMGWYRQAPGKERELVAAIRSGSRTNYADSVKGRFTISRDNAKNTVYLQMNSLKPEDTAVYYCAADSGYGRPYYYWGQGTQVTVSS | high polyreactivity
QVQLEESGGGLVQAGGSLRLSCAASGSIFYSYAMGWYRQAPGKERELVAAINWSGGSTYYADSVKGRFTISRDNAKNTFYFQMNSLKPQDTAVYYCAADYGWGPIYDYWGQGTQVNVSS | low polyreactivity
QVQLVESGGGLVQAGGSLRLSCAASGRIFPPYAMGWYRQAPGKERELVATISYTGGSTYYADSVKGRFTISRDNAKNTVYLQMNRLKPEDTAVYYCNAEYYYWNREGDYWGQGTQVTVSS | low polyreactivity
QVQLVESGGGLVQAGGSLRLSCAASGNILIGNVMGWYRQAPGKERELVAAITSGGDTYYADSVKGRFTISRDNAKNTVYLQMNSLKPEDTAVYYCNAYYYFWGQGTQVTVSS | low polyreactivity
QVQLVESGGGLVQAGGSLRLRCAASGSIFSGNAMGWYRQAPGKESELVAAISVNGGRTYYADSVKGRFTISRDNAKNTVSLQMNSLKPEDTAVYYCNAVTKVVYHGPYGYDYWGQGTQVTVSS | high polyreactivity
QVQLVESGGGLVQAGGSLRLSCAASGYIFEEYDMGWYRQAPGKERELVAAISASGGSTYYADSVKGRFTISRDNAKNTVYLQMNSLKPEDTAVYYCAADAVREVYGSWDDYWGQGTQVTVSS | low polyreactivity
QVQLVESGGGLVQAGGSLRLSCAASGIIFNSYAMGWYRQAPGKERELVAAISRSGTSTYYADSVKGRFTISRDNAKNTVYLQMNSLKPEDTAVYYCNVARGYYSYSSRIDYYWGQGTQVTVSS | high polyreactivity
QVQLVESGGGLVQAGGSLRLSCAASGRISNDYAMGWYRQAPGKDRELVATITFSGGDTYYADSVKGRFTISRDHAKNTVYLQMNSLKPEDTAVYYCAASKWPSYSGGWWRLLFDYWGQGTQVTVSS | low polyreactivity
QVQLVESGGGLVQAGGSLRLSCAASGRIFWPYAMGWYRQAPGKERELVAAITSGGSTYYADSVKGRFTISRDNAKNTVYLQMNSLKPEDTAVYYCNAKLRRHYDHLYDYWGQGTQVTVSS | low polyreactivity
QDQLVESGGGLVQAGGSLRLSCAASGRIFAGYTMGWSRQAPGKERELVAAISWSGGRTYYADSVKGRFTISRDNAKNTVYLQMNSLKPEDTAVYYCNIVGWYHNYYYWGQGTQVTVSS | high polyreactivity
QVQLVESGGGLVQAGGSLRLSCAASGRTFGTYVMGWYRQAPGKERELVAAITGSGGSTYYADSVKGRFTISRDNAKNTVYLQMNSLKPEDPAVYYCAARAYQHYNWGQGTQVTVSS | high polyreactivity
QVQLVETGGGLVQAGGSLRLSCAASGRIFGPNSKGWYRQAPGKEREFVASIRYSGGSTYYADSVKGRFTISRDYAKNTVYLQMHSLKPEDTAVYYCAARTVTLSYLYYYWGQGTHVTVSS | high polyreactivity
LVQLVESGGGLVQAGGSLRLSCAASGSTSRKYTMGWYRQSPGKERELVARITSSGSSTYYADSVKGRFTISRDTAKNTVYLQMNSLKAEDTADYYCNARAHSDRKSSYIYLPYSYDYWGQGTQVTVSS | high polyreactivity
QVQLVESAGGLVQAGGSLRLSCAASGITLSYNAMGWYRQAPGKERELVAAISARGGSTYYADSVKGRFTISRDNAKNTVYLQMNSLKPEVTAVYYCAAPRGWRQNKYDYWGQGTEVTVSS | high polyreactivity
QVQLVESGGGLVQAGGSLRLSCAASGYNFNYAMGWYRQAPGKERELVAAISRRGGSTYYADSVKGRFTISRDNAKNTVYLQMNSLTPEDTAVYYCAARLPGYFGIGDYWGQGTQVTVSS | high polyreactivity
QVQLVESGGGLVQAGGSLRLSCAASGSIFRRYAMGWYRHAPGKEREFVAAITRSGGGTYYADSVKGRFTISRDNAKNTVSLQMNSLKPEDTAVYFCAKDVFVQRSRYPEGDYWGQGTQVTVSS | high polyreactivity
QVQLVESGGGLVQAGGSLRLSCAASGSILQTYAMGWYRQAPGKERELVAAITWSVVSTYYADSVKGRFTISRDNAKNTVYLQMNSLKPEDTAVYYCNARSFGDPGNAYDYWGQGTQVTVSS | high polyreactivity
QVQLVESGGGLVQAGGSLRLSCAASGSTFYSYAMGWYRQAPGKERELVAAITSGGSTNYADSVKGRFTISRDNAKNTVYLQMNRLKPEDTAVYYCARKYWHRSYGYDYWGQGTQVTVSS | low polyreactivity
QVQLVESGGGLVQAGGSLRLSCAASGFTFADYAMGWYRQAPGKEREWVAAISNGGSTTYADSVKGRFTSSRDNAKNTVYLQMNTLNPEDTAVYYCAAALSSYGWYAYGPWYGYWGQGTQVTVSS | high polyreactivity
QVQLVESGGGLVQAGGSLRLTCAASGFIFRAYAKGWYRQEPGKERELVAAISRSVSRTYYADSVKGRFTISRDNAKNTVYLQMNSLKPEDTAVYYCAADGQLHMDYWGQGTQVTVSS | high polyreactivity
